How the values were obtained:
[1] = molecular target: ERK1 (p42) active (phospho), human, Active Motif 31 152 (human) (UniProt P27361); experiment: RPA, normal assay
[2] = molecular target: ERK1 (p44) active (GST tagged), human, Invitrogen PV 3311 (human) (UniProt P27361); experiment: RPA, normal assay
[3] = molecular target: ERK1 (p44) inactive (GST tagged), human, Invitrogen PV 3312 (human) (UniProt P27361); experiment: RPA, normal assay
[4] = molecular target: ERK1 (p44), human, Cell Signaling Technology 7416 (human) (UniProt P27361); experiment: RPA, normal assay
[5] = molecular target: ERK2 (p42), human, Biosource PHO 0104 (human) (UniProt P28482); experiment: RPA, normal assay
Chain of UniProt P28482 (P28482 2-360 limits assumed): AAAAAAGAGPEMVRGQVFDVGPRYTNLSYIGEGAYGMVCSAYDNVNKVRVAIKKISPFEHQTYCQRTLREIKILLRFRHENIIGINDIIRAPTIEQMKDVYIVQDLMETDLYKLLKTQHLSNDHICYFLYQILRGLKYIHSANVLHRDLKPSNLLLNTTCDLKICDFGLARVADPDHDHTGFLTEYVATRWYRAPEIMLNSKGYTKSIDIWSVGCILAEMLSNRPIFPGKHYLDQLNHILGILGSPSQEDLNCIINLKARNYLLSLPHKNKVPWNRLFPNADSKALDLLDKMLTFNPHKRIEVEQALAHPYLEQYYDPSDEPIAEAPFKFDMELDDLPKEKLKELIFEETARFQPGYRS

[6] = molecular target: Erk1-BSA 2.7x peptide-protein conjugate (human; bovine); experiment: RPA, normal assay
Chain of Erk1-BSA 2.7x peptide-protein conjugate (human; bovine) (peptide, as listed by the source limits assumed, chain 1 of 2): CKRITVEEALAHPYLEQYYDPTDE
Chain of Erk1-BSA 2.7x peptide-protein conjugate (human; bovine) (P02769 25-607 limits assumed, chain 2 of 2): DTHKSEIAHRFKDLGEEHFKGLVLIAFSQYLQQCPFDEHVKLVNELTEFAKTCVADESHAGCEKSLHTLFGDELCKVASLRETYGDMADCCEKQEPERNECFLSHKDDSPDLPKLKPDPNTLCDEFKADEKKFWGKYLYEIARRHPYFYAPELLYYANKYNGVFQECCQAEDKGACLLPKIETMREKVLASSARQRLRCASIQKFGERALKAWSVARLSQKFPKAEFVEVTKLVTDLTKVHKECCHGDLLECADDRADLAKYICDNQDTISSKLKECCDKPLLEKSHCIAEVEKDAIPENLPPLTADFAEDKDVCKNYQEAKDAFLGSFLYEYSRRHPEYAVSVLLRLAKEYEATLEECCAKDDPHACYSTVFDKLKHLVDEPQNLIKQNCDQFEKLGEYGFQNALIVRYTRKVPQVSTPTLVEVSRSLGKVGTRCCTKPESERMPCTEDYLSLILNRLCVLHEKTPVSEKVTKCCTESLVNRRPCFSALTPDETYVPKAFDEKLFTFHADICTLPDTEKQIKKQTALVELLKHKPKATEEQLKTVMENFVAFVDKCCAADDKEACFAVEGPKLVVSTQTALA

[7] = molecular target: Histone H3 recombinant protein, calf, Roche 11 034 758 001 (calf) (UniProt P68432); experiment: RPA, normal assay
[8] = molecular target: Histone H3 recombinant protein, human, Upstate 14-494 (human) (UniProt P68431); experiment: RPA, normal assay
[9] = molecular target: Histone H3-BSA 2.7x peptide-protein conjugate (bovine); experiment: RPA, normal assay
Chain of Histone H3-BSA 2.7x peptide-protein conjugate (bovine) (P02769 25-607 limits assumed): as the sequence (P02769 25-607 limits assumed, chain 2 of 2) above

[10] = molecular target: pRb recombinant protein, human, Active Motif 31 128 (human) (UniProt P06400); experiment: RPA, normal assay
Chain of UniProt P06400 (P06400 whole entry): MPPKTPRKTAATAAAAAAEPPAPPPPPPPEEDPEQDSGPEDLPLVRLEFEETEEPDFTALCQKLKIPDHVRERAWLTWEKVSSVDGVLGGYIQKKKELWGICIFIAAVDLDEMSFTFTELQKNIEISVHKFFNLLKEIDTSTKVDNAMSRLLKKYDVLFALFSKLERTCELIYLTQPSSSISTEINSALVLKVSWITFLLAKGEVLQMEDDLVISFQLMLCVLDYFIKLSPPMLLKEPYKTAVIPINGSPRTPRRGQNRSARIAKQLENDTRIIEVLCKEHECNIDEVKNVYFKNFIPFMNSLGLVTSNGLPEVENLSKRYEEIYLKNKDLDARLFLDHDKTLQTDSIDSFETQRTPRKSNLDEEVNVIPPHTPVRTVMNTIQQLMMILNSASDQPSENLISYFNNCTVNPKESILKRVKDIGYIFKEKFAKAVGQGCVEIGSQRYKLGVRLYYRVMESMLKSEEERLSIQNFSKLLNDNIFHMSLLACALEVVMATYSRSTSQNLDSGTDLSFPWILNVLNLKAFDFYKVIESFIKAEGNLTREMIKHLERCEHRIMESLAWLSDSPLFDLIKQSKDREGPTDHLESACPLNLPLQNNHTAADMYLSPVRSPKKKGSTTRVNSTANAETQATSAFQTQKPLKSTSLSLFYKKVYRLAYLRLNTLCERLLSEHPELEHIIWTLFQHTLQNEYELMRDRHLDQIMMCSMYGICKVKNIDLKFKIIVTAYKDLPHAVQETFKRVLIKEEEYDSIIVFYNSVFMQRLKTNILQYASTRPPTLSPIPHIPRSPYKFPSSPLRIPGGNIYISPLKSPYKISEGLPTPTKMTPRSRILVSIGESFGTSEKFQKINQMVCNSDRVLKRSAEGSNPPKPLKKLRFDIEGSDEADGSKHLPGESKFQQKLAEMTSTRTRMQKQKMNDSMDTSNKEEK

[11] = molecular target: pRb-BSA 1x peptide-protein conjugate (bovine); experiment: RPA, normal assay
Chain of pRb-BSA 1x peptide-protein conjugate (bovine) (P02769 25-607 limits assumed): as the sequence (P02769 25-607 limits assumed, chain 2 of 2) above

[12] = molecular target: ERK1 (p44) active (GST tagged), human, Invitrogen PV 3311 (human) (UniProt P27361); experiment: RPA standard curves, mean of duplicate assays
[13] = molecular target: ERK1 (p44) active (GST tagged), human, Invitrogen PV 3311 (human) (UniProt P27361); experiment: RPA standard curve, assay 1, LOD back-calculated from one-site fit
[14] = molecular target: ERK1 (p44) active (GST tagged), human, Invitrogen PV 3311 (human) (UniProt P27361); experiment: RPA standard curve, assay 2, LOD back-calculated from one-site fit
[15] = molecular target: ERK1 (p42) active (phospho), human, Active Motif 31 152 (human) (UniProt P27361); experiment: RPA, competition: +recombinant protein 10 nM (not named)
[16] = molecular target: ERK1 (p44) active (GST tagged), human, Invitrogen PV 3311 (human) (UniProt P27361); experiment: as above
[17] = molecular target: ERK1 (p44) inactive (GST tagged), human, Invitrogen PV 3312 (human) (UniProt P27361); experiment: as above
[18] = molecular target: ERK1 (p44), human, Cell Signaling Technology 7416 (human) (UniProt P27361); experiment: as above
[19] = molecular target: ERK2 (p42), human, Biosource PHO 0104 (human) (UniProt P28482); experiment: as above
[20] = molecular target: Erk1-BSA 2.7x peptide-protein conjugate (human; bovine); experiment: as above
[21] = molecular target: Histone H3 recombinant protein, calf, Roche 11 034 758 001 (calf) (UniProt P68432); experiment: as above
[22] = molecular target: Histone H3 recombinant protein, human, Upstate 14-494 (human) (UniProt P68431); experiment: as above
[23] = molecular target: Histone H3-BSA 2.7x peptide-protein conjugate (bovine); experiment: as above
[24] = molecular target: pErk1/2-BSA 2.7x peptide-protein conjugate (human; bovine); experiment: as above
Chain of pErk1/2-BSA 2.7x peptide-protein conjugate (human; bovine) (P02769 25-607 limits assumed): as the sequence (P02769 25-607 limits assumed, chain 2 of 2) above

[25] = molecular target: pRb recombinant protein, human, Active Motif 31 128 (human) (UniProt P06400); experiment: as above
[26] = molecular target: pRb-BSA 1x peptide-protein conjugate (bovine); experiment: as above
[27] = molecular target: ERK1 (p42) active (phospho), human, Active Motif 31 152 (human) (UniProt P27361); experiment: RPA, competition: +recombinant protein 100 nM (not named)
[28] = molecular target: ERK1 (p44) active (GST tagged), human, Invitrogen PV 3311 (human) (UniProt P27361); experiment: as above
[29] = molecular target: ERK1 (p44) inactive (GST tagged), human, Invitrogen PV 3312 (human) (UniProt P27361); experiment: as above
[30] = molecular target: ERK1 (p44), human, Cell Signaling Technology 7416 (human) (UniProt P27361); experiment: as above
[31] = molecular target: ERK2 (p42), human, Biosource PHO 0104 (human) (UniProt P28482); experiment: as above
[32] = molecular target: Erk1-BSA 2.7x peptide-protein conjugate (human; bovine); experiment: as above
[33] = molecular target: Histone H3 recombinant protein, calf, Roche 11 034 758 001 (calf) (UniProt P68432); experiment: as above
[34] = molecular target: Histone H3 recombinant protein, human, Upstate 14-494 (human) (UniProt P68431); experiment: as above
[35] = molecular target: Histone H3-BSA 2.7x peptide-protein conjugate (bovine); experiment: as above
[36] = molecular target: pErk1/2-BSA 2.7x peptide-protein conjugate (human; bovine); experiment: as above
[37] = molecular target: pRb recombinant protein, human, Active Motif 31 128 (human) (UniProt P06400); experiment: as above
[38] = molecular target: pRb-BSA 1x peptide-protein conjugate (bovine); experiment: as above

| maximum standard curve signal [1] | maximum standard curve signal [2] | maximum standard curve signal [3] | maximum standard curve signal [4] | maximum standard curve signal [5] | maximum standard curve signal [6] | maximum standard curve signal [7] | maximum standard curve signal [8] | maximum standard curve signal [9] | maximum standard curve signal [10] | maximum standard curve signal [11] | mean LOD [12] | LOD [13] | LOD [14] | maximum standard curve signal [15] | maximum standard curve signal [16] | maximum standard curve signal [17] | maximum standard curve signal [18] | maximum standard curve signal [19] | maximum standard curve signal [20] | Substance | also measured |
| --- | --- | --- | --- | --- | --- | --- | --- | --- | --- | --- | --- | --- | --- | --- | --- | --- | --- | --- | --- | --- | --- |
| 0.19 RFI | 1.66 RFI | 0.23 RFI | 0.04 RFI | 0.01 RFI | 0.02 RFI | 0.01 RFI | 0.01 RFI | 0.11 RFI | 0.01 RFI | 0.01 RFI | 0.055 nM | 0.058 nM | 0.052 nM |  |  |  |  |  |  | p44/42 MAPK phospho (pERK1/2) Thr202/Tyr204 antibody, Cell Signaling Technology #9101 |  |
|  |  | 0.02 RFI |  |  | 0.01 RFI | 0.43 RFI | 11.2 RFI | 5.38 RFI |  |  |  |  |  | 2.4 RFI | 2.2 RFI | 2.54 RFI | 2.19 RFI | 2.3 RFI | 2.8 RFI | Histone H3 antibody, Abcam ab1791 | maximum standard curve signal [21]: 2.5 RFI; maximum standard curve signal [22]: 3.16 RFI; maximum standard curve signal [23]: 3.93 RFI; maximum standard curve signal [24]: 2.57 RFI; maximum standard curve signal [25]: 2.77 RFI; maximum standard curve signal [26]: 2.57 RFI; maximum standard curve signal [27]: 1.87 RFI; maximum standard curve signal [28]: 1.37 RFI; maximum standard curve signal [29]: 1.32 RFI; maximum standard curve signal [30]: 1.8 RFI; maximum standard curve signal [31]: 1.56 RFI; maximum standard curve signal [32]: 1.42 RFI; maximum standard curve signal [33]: 2.56 RFI; maximum standard curve signal [34]: 2.09 RFI; maximum standard curve signal [35]: 1.68 RFI; maximum standard curve signal [36]: 1.81 RFI; maximum standard curve signal [37]: 2.28 RFI; maximum standard curve signal [38]: 2.46 RFI |
| 1.17 RFI | 10.4 RFI | 10.9 RFI | 0.28 RFI | 3.57 RFI | 8.24 RFI | 0.02 RFI |  | 0.04 RFI | 0.02 RFI | 0.03 RFI | 0.044 nM | 0.04 nM | 0.047 nM | 0.31 RFI | 3.88 RFI | 5.17 RFI | 0.15 RFI | 0.9 RFI | 7.88 RFI | p44/42 MAPK (Erk1/2) antibody, Biosource 44-654G | maximum standard curve signal [21]: 0.07 RFI; maximum standard curve signal [22]: 0.09 RFI; maximum standard curve signal [23]: 0.13 RFI; maximum standard curve signal [24]: 0.08 RFI; maximum standard curve signal [25]: 0.11 RFI; maximum standard curve signal [26]: 0.1 RFI; maximum standard curve signal [27]: 0.15 RFI; maximum standard curve signal [28]: 0.32 RFI; maximum standard curve signal [29]: 0.38 RFI; maximum standard curve signal [30]: 0.16 RFI; maximum standard curve signal [31]: 0.18 RFI; maximum standard curve signal [32]: 5.69 RFI; maximum standard curve signal [33]: 0.15 RFI; maximum standard curve signal [34]: 0.16 RFI; maximum standard curve signal [35]: 0.22 RFI; maximum standard curve signal [36]: 0.14 RFI; maximum standard curve signal [37]: 0.17 RFI; maximum standard curve signal [38]: 0.16 RFI |
